Measured values as given in publication doi:10.1101/2024.08.05.606604, “The molecular basis of Human FN3K mediated phosphorylation of glycated substrate” (bioRxiv, 2024).

Target: the molecule itself
Assay: crystal structure; HsFN3KΔ crystals, hanging drop vapor diffusion at 20 °C (0.5 M ammonium sulfate, 0.1 M tri-sodium citrate, 1 M lithium sulfate); space group P212121, two molecules in the asymmetric unit; apo and soaked with nucleotides and DMF

B1: HsFN3KΔ (human fructosamine-3-kinase with an internal loop truncation: amino acid 117–138 replaced with a GSS linker) (enzyme)
chain: MEQLLRAELRTATLRAFGGPGAGCISEGRAYDTDAGPVFVKVNRRTQARQMFEGEVASLEALRSTGLVRVPRPMKVIDLPGGGAAFVMEHLKMKSLSSQASKLGEQMADLHLYNQKGSSYVDKFGFHTVTCCGFIPQVNEWQDDWPTFFARHRLQAQLDLIEKDYADREARELWSRLQVKIPDLFCGLEIVPALLHGDLWSGNVAEDDVGPIIYDPASFYGHSEFELAIALMFGGFPRSFFTAYHRKIPKAPGFDQRLLLYQLFNYLNHWNHFGREYRSPSLGTMRRLLK
notes: human fructosamine-3-kinase (FN3K), Gene ID 64122, residues before the truncated loop (up to residue 116); linker that replaces amino acids 117–138; human fructosamine-3-kinase (FN3K), Gene ID 64122, residues after the truncated loop (from residue 139); Construct used for all crystal structures; also called apo-HsFN3K; apo-HsFN3KΔ; source: E. coli Rosetta 2 (DE3), purified (Ni-NTA, SP-HP cation …)
stoichiometry N: 2
